Results as given in US20200207857A1.
Positions count from the first letter of the chain named.

B1: Anti-CLDN 18.2-7H1 (antibody, V domains shown)
VL: DIVLTQSPAILSVSPGEKVTMTCRASSSVSYMHWYQQKPGSSPKPWIYGTSNLASGVPARFSGSGSGTSYSLTISRVEAEDAATYYCQQWSSNPLTFGTGTKLELK
V domain: KVQLQESGGGSVQPGGSLKLSCAASGFTFSSYSMSWVRQTPEKRLEWVAYISNLGGATYYPDTVKGRFTVSRDNARNSLYLQMTSLKSDDTAMYYCTRHNYGYDGFADWGQGTLATVSA
B2: Anti-CLDN 18.2-5H1 (antibody, V domains shown)
VH: VQLQESGAELVRPGTSVKVSCKASGYAFTNYLIEWIKQRPGQGLEWIGMINPGSGGTKYNEKFKGKASLTADKTSSTAYMQLSSLTSDDSAVYFCARGGFGNSFAYWGQGTLVTVSA
VL: DIMMTQSPLSLTVTAGEKVTMTCKSSQSLLNSGNLKNYLTWYQQKPGQPPKLLTYWASTRESGVPTRFTGSGSATDFTLTISSVQAEDLAVYYCQNAYFYPYTFGGGTKLEIK
B3: Anti-CLDN 18.2-9A1 (antibody, V domains shown)
VH: B2 VH with E5Q, G25R, I36V, K58H, G65V, S68T, T74S
VL: B2 VL with M3L, M4L, T22S, S32G, T66V, A74G, A97G
B4: Anti-CLDN 18.2-15G11 (antibody, V domains shown)
VH: VQLQESGGGLVQPGGSRKLSCAASGFSFSSFGMHWVRQAPEKGLEWVAFISSGSSPIYYADTVKGRFTVSRDNPKNTLFLQMTSLRSEDTAMYFCARNYYGNAMDYWGQGSSVTVSS
VL: DIMMTQSPLSLTVTAGEKVTMNCKSSQSLLNGGNQKNYLAWYQQKPGQPPKLLIYWASTRESGVPARFTGSGSGTDFTLTINTVQAEDLAVYYCQNDYFYPLTFGTGTKLELK
B5: Anti-CLDN 18.2-5C9 (antibody, V domains shown)
VH: VKLQESGPELKKPGETVKISCKASGYTFTNYGMNWVKQAPGKGLKWMGWINMYTGEPTYADDFKGRFAFSLETSASTAYLQINNLKNEDTATYFCSRLYNGNSLDYWGQGTSLTVSS
VL: DILLTQSPLSLTVTAGEKVTMSCKSSQSLLNSGNQKSYLTWYQQKPGQPPKLLLYWASTRESGVPARFTGSGSGTDFSLTISSVQTEDLAVYYCQNAYSFPFTFGSGTKLEIN
B6: Anti-CLDN 18.2-5C9o (humanized antibody h5C9o) (antibody, V domains shown)
VH: EVQLVESGGGLVQPGGSLRLSCAVSGYTFSMNWVRQAPGKGLEWVAWINMYTGEPTYADDFKGRFTISRDDSKNTLYLQMNSLRAEDTAVYYCARLYNGNSLDYWGQGTLVTVSS
VL: DIQMTQSPSSLSASVGDRVTITCKSSQSLLNSGNQKSYLTWYQQKPGKAPKLLIYWASTLESGVPSRFSGSGSGTDYTLTISSLQPEDFATYYCQNAYSFPFTFGQGTKVEIK
B7: humanized anti-Claudin 18.2 antibody h5C9oao (antibody, human IgG1, kappa, V domains shown)
VH: B6 VH with Y97A, N98R, L102M
VL: DIQMTQSPSSLSASVGDRVTITCKSSQSLLNSGNQKSYLTWYQQKPGKAPKLLIYWASTLESGVPSRFSGSGSGTDYTLTISSLQPEDFATYYCQNAYFFPFTFGQGTKVEIKR
B8: Anti-CLDN 18.2-5C9ob (humanized antibody h5C9ob) (antibody, human IgG1, V domains shown)
VH: B6 VH
VL: B6 VL with S99F
B9: h5C9o Fc mutation (antibody, V domains shown)
VH: B6 VH
VL: B7 VL with F99S
B10: Anti-CLDN 18.2-5C9oae (humanized antibody h5C9oae) (antibody, human IgG1, V domains shown)
VH: B6 VH with N98R
VL: B6 VL with S99F
B11: h5C9oj (antibody, V domains shown)
VH: B6 VH with S101A
VL: B6 VL with S99F
B12: h5C9oi (antibody, V domains shown)
VH: B6 VH with L96M
VL: B6 VL with A97S
B13: h5C9oh (antibody, V domains shown)
VH: B6 VH with N98R
VL: B6 VL with S99E
B14: humanized anti-Claudin 18.2 antibody h5C9oan (antibody, human IgG1, kappa, V domains shown)
VH: B6 VH with L96S, Y97S, N98R, S101G, L102F
VL: B7 VL
B15: h5C9oah (antibody, V domains shown)
VH: B6 VH with L96S, Y97S, N98R, S101G, L102F
VL: B6 VL
B16: Anti-CLDN 18.2-5C9oag (humanized antibody h5C9oag) (antibody, human IgG1, V domains shown)
VH: B6 VH with Y97A, N98R, L102I
VL: B6 VL
B17: Anti-CLDN 18.2-5C9oai (humanized antibody h5C9oai) (antibody, human IgG1, V domains shown)
VH: B6 VH with Y97A, N98R, L102M
VL: B6 VL
B18: chimeric anti-CLDN 18.2 antibody ch9A1 (antibody, human IgG1, kappa, V domains shown)
VH: EVQLQQSGAELVRPGTSVKVSCKASRYAFTNYLIEWVKQRPGQGLEWIGMINPGSGGTHYNEKFKVKATLTADKSSSTAYMQLSSLTSDDSAVYFCARGGFGNSFAYWGQGTLVTVSA
VL: DILLTQSPLSLTVTAGEKVTMSCKSSQSLLNGGNLKNYLTWYQQKPGQPPKLLTYWASTRESGVPVRFTGSGSGTDFTLTISSVQAEDLAVYYCQNGYFYPYTFGGGTKLEIKR
B19: chimeric anti-CLDN 18.2 antibody ch5C9 (antibody, human IgG1, kappa, V domains shown)
VH: EVKLQESGPELKKPGETVKISCKASGYTFTNYGMNWVKQAPGKGLKWMGWINMYTGEPTYADDFKGRFAFSLETSASTAYLQINNLKNEDTATYFCSRLYNGNSLDYWGQGTSLTVSS
VL: DILLTQSPLSLTVTAGEKVTMSCKSSQSLLNSGNQKSYLTWYQQKPGQPPKLLLYWASTRESGVPARFTGSGSGTDFSLTISSVQTEDLAVYYCQNAYSFPFTFGSGTKLEINR
B20: chimeric anti-CLDN 18.2 antibody ch15G11 (antibody, V domains shown)
VH: EVQLQESGGGLVQPGGSRKLSCAASGFSFSSFGMHWVRQAPEKGLEWVAFISSGSSPIYYADTVKGRFTVSRDNPKNTLFLQMTSLRSEDTAMYFCARNYYGNAMDYWGQGSSVTVSS
VL: DIMMTQSPLSLTVTAGEKVTMNCKSSQSLLNGGNQKNYLAWYQQKPGQPPKLLIYWASTRESGVPARFTGSGSGTDFTLTINTVQAEDLAVYYCQNDYFYPLTFGTGTKLELKR

target: Recombinant protein Claudin 18.2; assay: binding study 'as in Example 1'; method not named (ELISA on recombinant Claudin 18.2 assumed)
Sequence (chain, as listed by the source limits assumed, form in doubt): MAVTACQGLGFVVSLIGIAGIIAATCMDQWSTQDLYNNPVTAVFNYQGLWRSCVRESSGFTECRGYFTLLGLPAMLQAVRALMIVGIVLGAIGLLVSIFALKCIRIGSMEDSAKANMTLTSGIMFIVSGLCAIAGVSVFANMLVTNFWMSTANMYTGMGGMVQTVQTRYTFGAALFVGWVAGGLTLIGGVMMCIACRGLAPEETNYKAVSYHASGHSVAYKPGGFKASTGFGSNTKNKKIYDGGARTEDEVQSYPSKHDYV

Kd	Binder
0.267 nM	B1
0.32 nM	B2

target: human Claudin 18.1 (CLDN 18.1) expressed on HEK293 cells (human) (UniProt P56856); assay: flow cytometry, 293T-CLDN18.1 cells, FL1-A histogram, gate P1; untransfected 293T: M1 0.0%
Sequence (P56856 whole entry): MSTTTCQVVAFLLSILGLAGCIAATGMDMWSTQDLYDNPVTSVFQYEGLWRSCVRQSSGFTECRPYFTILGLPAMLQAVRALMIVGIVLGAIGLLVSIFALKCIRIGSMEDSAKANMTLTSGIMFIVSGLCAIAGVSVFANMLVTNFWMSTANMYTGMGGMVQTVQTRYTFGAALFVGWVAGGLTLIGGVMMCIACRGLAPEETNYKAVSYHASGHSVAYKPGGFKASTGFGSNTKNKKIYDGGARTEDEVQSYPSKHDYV

% of cells in gate M1	Binder
1.3%	B3

target: human Claudin 18.1 (CLDN 18.1) expressed on HEK293 cells (human) (UniProt P56856); assay: flow cytometry, 293T-CLDN18.1 cells, FL1-A histogram, gate P1; untransfected 293T: M1 0.1%

% of cells in gate M1	Binder
0.7%	B4
0.7%	B5

target: Recombinant protein Claudin 18.2; assay: ELISA as in Example 1, recombinant Claudin 18.2 coated on the plate, OD450, linear axis in ng/ml

EC50 (read off the curve)	Binder
0.06 µg/mL	B3
0.06 µg/mL	B4
0.05 µg/mL	B5

target: Recombinant protein Claudin 18.2; assay: ELISA on plate-coated recombinant Claudin 18.2, OD370; Kd table under the graph, no unit in the table, unit from the x axis log[antibody] nM

Kd	Binder
0.0536 nM	B3
0.0662 nM	B4
0.0699 nM	B5

target: Recombinant protein Claudin 18.2; assay: ELISA on plate-coated recombinant Claudin 18.2, OD450; Kd table under the graph, no unit in the table, unit from the x axis log[antibody] nM

Kd	Binder
0.128 nM	B6
0.134 nM	B7
0.129 nM	B8
0.114 nM	B9
0.14 nM	B10

target: Recombinant protein Claudin 18.2; assay: as above; remark: another data set of the same source

Kd	Binder
0.0892 nM	B6
0.0777 nM	B11
0.0863 nM	B8
0.0868 nM	B12
0.0802 nM	B13

target: Recombinant protein Claudin 18.2; assay: ELISA-based assay on Claudin 18.2, y axis RLU; Kd table under the graph, no unit in the table, unit from the x axis log[antibody] nM

Kd	Binder
0.14 nM	B6
0.102 nM	B7
0.13 nM	B8
0.12 nM	B14
0.162 nM	B9
0.109 nM	B10

target: Recombinant protein Claudin 18.2; assay: as above; remark: another data set of the same source

Kd	Binder
0.16 nM	B8

target: Recombinant protein Claudin 18.2; assay: as above; remark: another data set of the same source

Kd	Binder
0.276 nM	B11
0.236 nM	B15
0.196 nM	B16
0.196 nM	B17
0.213 nM	B8
0.316 nM	B12
0.201 nM	B13
0.183 nM	B10

target: Recombinant protein Claudin 18.2; assay: ELISA, recombinant Claudin 18.2 coated at 4.5 ug/mL (Example 67), OD370; Kd table under the graph, no unit in the table, unit from the x axis log[antibody] nM

Kd	Binder
0.101 nM	B18
0.0988 nM	B19
0.0939 nM	B20

target: Recombinant protein Claudin 18.2; assay: ELISA, recombinant Claudin 18.2 coated at 4.5 ug/mL (Example 67), OD450; Kd box under the graph without column head (the only rising curve is h5C9o_CLN18.2), no unit in the box, unit from the x axis log[antibody] nM

Kd	Binder
0.0873 nM	B6
